Columns and labels:
[1] = molecular target: T1, GST-Human-stalk fusion protein (Schistosoma japonica; human, UniProt P01833); assay: SPR (BIAcore), D6-GST captured by immobilized anti-GST antibody, 1:1 Langmuir global fit
T1 chain: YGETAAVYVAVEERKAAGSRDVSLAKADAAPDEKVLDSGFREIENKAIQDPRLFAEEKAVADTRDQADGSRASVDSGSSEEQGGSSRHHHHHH

[2] = molecular target: GST-Rat-stalk fusion protein (Schistosoma japonica; rat) (UniProt P15083); assay: as above
[3] = molecular target: pIgR expressed in transfected MDCK cells (Examples 6 and 7)

B1: sFv5AF-Cys purified dimer (scFv)
scFv: DYKAKQVQLVQSGGGVVQPGRSLRLSCAASGFTFSSYAMHWVRQAPGKGLEWVSAISGSGGSTYYADSVKGRFTISRDNAKNSLYLQMNSLRAEDTAVYYCARDTRGYFDLWGRGTLVTVSSGGGGSGGGGSGGGGSSELTQDPAMSVALGQTVRITCQGDSLRKYHASWYQQRPRQAPRLVVYGKNERPSGIPERFSGSTSGDTASLTISGLQAEDEADYYCHSRDSNADLVVFGGGTKVTVLGAAAEQKLISEEDLNGAAHHHHHH
Ka [1]: 5.02e+08 M⁻¹
Kd [1]: 1.99 nM
Ka [2]: 5.01e+08 M⁻¹
Kd [2]: 2 nM
apical to basolateral (reverse) transcytosis after 16 hours [3]: 10%
basolateral to apical (forward) transcytosis after 16 hours [3]: < 10%

B2: sFv5AF-Cys (starting material, mixture of monomer and dimer) (scFv)
scFv: B1 scFv
Ka [1]: 6.71e+08 M⁻¹
Kd [1]: 1.49 nM
koff [1]: 0.00145 s⁻¹
Ka [2]: 4.36e+08 M⁻¹
Kd [2]: 2.3 nM

B3: sFv5AF-Cys purified monomer (scFv)
scFv: B1 scFv
Ka [1]: 1.77e+08 M⁻¹
Kd [1]: 5.64 nM
koff [1]: 0.00241 s⁻¹
Ka [2]: 1.77e+08 M⁻¹
Kd [2]: 5.63 nM
apical to basolateral (reverse) transcytosis after 16 hours [3]: < 5%
